Experimental data taken from PMC4319758.

Experiments:
[1] = target: Sec61 channel with Sec61p S179P, in reconstituted proteoliposomes (S. cerevisiae | S. cerevisiae (endogenous in the yeast membranes)) (UniProt P32915)
[2] = target: Sec61 channel with Sec61p S179P/S353C, in reconstituted proteoliposomes (S. cerevisiae | S. cerevisiae (endogenous in the yeast membranes)) (UniProt P32915)
[3] = target: Sec61 channel with Sec61p S353C, in reconstituted proteoliposomes (S. cerevisiae | S. cerevisiae (endogenous in the yeast membranes)) (UniProt P32915)
[4] = target: Sec61 channel with Sec61p of sec61-302 (D168G, S179P, F263L, S353C), in reconstituted proteoliposomes (S. cerevisiae | S. cerevisiae (endogenous in the yeast membranes)) (UniProt P32915)
[5] = target: Sec61 channel, wild type (Sec61p, Sbh1p, Sss1p), in reconstituted proteoliposomes (S. cerevisiae | S. cerevisiae (endogenous in the yeast membranes)) (UniProt P32915)
[6] = target: Sec61 channel with Sec61p of sec61-302 (D168G, S179P, F263L, S353C), in reconstituted proteoliposomes (S. cerevisiae | S. cerevisiae (endogenous in the yeast membranes)) (UniProt P32915); assay: flotation of proteoliposomes in a sucrose gradient; 20 eq of reconstituted proteoliposomes with 2 pmol 19S RP in 30 µl binding buffer (20 mM Hepes-KOH pH 7.2, 250 mM sucrose, 120 mM KOAc, 5 mM Mg(OAc)2, 5 mM ATP, 1 mM DTT), 20 min on ice then 10 min at RT; flotation 55,000 rpm, 4°C, 1 hr; 9 fractions, 19S RP detected by anti-FLAG blot
[7] = target: Sec61 channel, wild type (Sec61p, Sbh1p, Sss1p), in reconstituted proteoliposomes (S. cerevisiae | S. cerevisiae (endogenous in the yeast membranes)) (UniProt P32915); assay: as above

t1/2 of Δgpαf export and degradation from microsomes in the cell-free ERAD assay with 1 mg/ml cytosol (limiting 19S RP); wildtype kinetics [1]: 20 min
t1/2 of Δgpαf export and degradation from microsomes in the cell-free ERAD assay with 1 mg/ml cytosol (limiting 19S RP) [2]: 45 min
t1/2 of Δgpαf export and degradation from microsomes in the cell-free ERAD assay with 1 mg/ml cytosol (limiting 19S RP) [3]: 45 min
t1/2 of Δgpαf export and degradation from microsomes in the cell-free ERAD assay with 1 mg/ml cytosol (limiting 19S RP) [4]: 45 min
t1/2 of Δgpαf export and degradation from microsomes in the cell-free ERAD assay with 1 mg/ml cytosol (limiting 19S RP) [5]: 20 min
percent of 19S RP bound [6]: 20%
percent of 19S RP bound [7]: 40%
Substance: proteasome 19S regulatory particle (RP), FLAG-tagged on Rpt1 (from UniProt P33299 1-467) (complex)
